Data reported in article PMC2877007.

Target: Epidermal Growth Factor Receptor (EGFR) (human (endogenous in A431)) (UniProt P00533)
Test: parameter fitting of an ODE model (PottersWheel) and a stochastic simulation (SPS) to immunogold electron microscopy counts; estimated constants; adaptor immunogold label on plasma membrane sheets of A431 cells over a time course of EGF, 20 nM EGF in the model; docking rate multiplied by a scaling factor f and adjusted to match the data

## Stat5 (from UniProt P42229 1-794) (natural protein)
  Kd: 2.13 µM
  koff: 11.7 s⁻¹
  kon: 5.5e+06 M⁻¹ s⁻¹
